According to US20050226876A1 (Hoffmann-La Roche, published 2005):

T1: Recombinant P-selectin (R&D Systems) (human, UniProt P16109 42-771)
T1 construct: extracellular domain; also called recombinant human P-selectin; recombinant truncated form of P-selectin
T1 sequence (looked up): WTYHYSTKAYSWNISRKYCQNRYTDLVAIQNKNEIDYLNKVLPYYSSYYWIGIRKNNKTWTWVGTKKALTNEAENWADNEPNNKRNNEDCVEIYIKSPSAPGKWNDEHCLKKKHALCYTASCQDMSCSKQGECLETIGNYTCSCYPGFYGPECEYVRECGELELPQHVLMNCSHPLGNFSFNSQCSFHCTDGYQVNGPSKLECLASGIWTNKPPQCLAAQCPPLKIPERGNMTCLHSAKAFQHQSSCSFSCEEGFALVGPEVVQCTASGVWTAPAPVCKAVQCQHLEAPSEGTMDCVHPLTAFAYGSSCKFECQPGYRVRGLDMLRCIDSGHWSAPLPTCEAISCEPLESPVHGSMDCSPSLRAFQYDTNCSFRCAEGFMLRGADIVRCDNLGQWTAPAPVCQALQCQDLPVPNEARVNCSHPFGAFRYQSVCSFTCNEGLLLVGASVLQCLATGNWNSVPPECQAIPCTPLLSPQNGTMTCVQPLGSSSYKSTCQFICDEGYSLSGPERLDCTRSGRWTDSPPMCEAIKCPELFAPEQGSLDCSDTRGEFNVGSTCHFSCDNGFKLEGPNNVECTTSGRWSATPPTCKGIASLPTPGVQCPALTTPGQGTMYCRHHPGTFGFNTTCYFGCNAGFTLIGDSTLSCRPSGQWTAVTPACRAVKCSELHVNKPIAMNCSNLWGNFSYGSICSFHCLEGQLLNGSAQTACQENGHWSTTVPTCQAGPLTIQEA

B1: HuMab 001 (antibody of cell line hu-Mab<P-selectin>LC 1004-001, DSM ACC2640) (antibody, V domains shown)
VH: EVQLVESGGGLVQPGGSLRLSCAASGFTFSSYDMHWVRQATGKGLEWVSGITTAGDTYYPGSVKGRFTISRENAKNSLYLQMNSLRAGDTAVYYCARGRISMDRGVKNNWFDPWGQGTLVTVSS
VL: EIVLTQSPATLSLSPGERATLSCRASQSVSSYLAWYQQKPGQAPRLLIYDASNRATGIPARFSGSGSGTDFTLTISSLEPEDFAVYYCQQRNNWPLTFGGGTKVEIK
notes: Human monoclonal antibody from transgenic mice; kappa light and gamma1 heavy chains by the cloning section; also called antibody 001; HuMab 1004-001
B2: HuMab 017 (antibody of cell line hu-Mab<P-selectin>LC 1004-017, DSM ACC2642) (antibody, V domains shown)
VH: QPQLVQSGAEVKKPGASVKVSCKVSGNTLTELSMHWVRQAPGKGLEWMGGFDPENGEAIYAQKFQGRVTMTADTSTDTAYMDLSSLRSEDTAVYYCATDLAGGSDFYYYGLDVWGQGTTVTVSS
VL: AIQLTQSPSSLSASVGDRVTITCRASQGISSALAWYQQKPGKAPKLLIYDASSLESGVPSRFSGSGSGTDFTLTISSLQPEDFATYYCQQFNSYPYTFGQGTKLEIK
notes: Human monoclonal antibody; also called antibody 017
B3: HuMab 003 (antibody, V domains shown)
VH: QVQLVESGGGVVQPGRSLRLSCAASGFTFSSYGMHWVRQAPGEGLEWVAVIWYDGTFKYYADSVKGRFTISRDNSKNTLSLLMNSLRAEDTAVYYCTRGGYYGSGSSFDYYYYGMDVWGQGTTVTVSS
VL: DIQMTQSPSSLSASVGDRVTITCRASQGISSWLAWYQQKPEKAPKSLIYAASSLQSGVPSRFSGSGSGTDFTLTISSLQPEDFATYYCQQYHSYPLTFGGGTKVEIK
notes: Human monoclonal antibody; also called antibody 003; LC 1004-003
B4: HuMab 005 (antibody, V domains shown)
VH: B3 VH
VL: EIVLTQSPATLSLSPGERATLSCRASQSVSSYLAWYQQKPGQAPRLLIYDASNRATGIPARFSGSGSGTDFTLTISSLEPEDFAVYYCQQRSNWPPVTFGQGTRLEIK
notes: Human monoclonal antibody; also called antibody 005

Biological target: T1, Recombinant P-selectin (R&D Systems)
Assay: SPR, BIACORE 2000; antibody captured by anti-human Fcγ, recombinant P-selectin 0-50 nM injected; 1:1 Langmuir fit
Description: Recombinant P-selectin (R&D Systems) was added in various concentrations between 0-50 nM. Association was measured by P-selectin-injection for 120 seconds; dissociation was measured by washing the chip surface with buffer for 180 seconds. Using Biaevaluation Software the kinetic data were fitted to a 1:1 Langmuir binding model of P-selectin to the presented monoclonal antibody.

Binder | Ka [M⁻¹] | Kd [nM] | koff [s⁻¹] | kon [M⁻¹ s⁻¹]
B1 | 1.45e+09 | 0.689 | 0.000419 | 608000
B2 | 5.59e+10 | 0.0179 | 1.39e-05 | 779000
B3 | 2.27e+09 | 0.441 | 0.000291 | 660000
B4 | 2.91e+09 | 0.343 | 0.000289 | 842000
